Experimental findings from publication PMC10904899, “Protein engineering of transaminase facilitating enzyme cascade reaction for the biosynthesis of azasugars” (iScience, 2024) are described below.

Broadly, the Km is the substrate concentration at which the rate is half of its maximum. Broadly, the kcat is the number of substrate molecules converted per active site and unit of time at saturation. The kcat/Km is the turnover number divided by the Michaelis constant.

Sequences and labels used below:
B1: MvTA (Mycolicibacterium vanbaalenii PYR-1) (protein)
chain: MGIDTGTSNLVAVEPGAIREDTPAGSVIQYSDYEIDYSSPFAGGVAWIEGEYLPAEDAKISIFDTGFGHSDLTYTVAHVWHGNIFRLGDHLDRLLDGARKLRLDSGYTKDELADITKKCVSLSQLRESFVNLTITRGYGKRKGEKDLSKLTHQVYIYAIPYLWAFPPAEQIFGTTAVVPRHVRRAGRNTVDPTIKNYQWGDLTAASFEAKDRGARTAILMDADNCVAEGPGFNVCIVKDGKLASPSRNALPGITRKTVFEIAGAMGIEAALRDVTSHELYDADEIMAVTTAGGVTPINTLDGVPIGDGEPGPVTVAIRDRFWALMDEPGPLIEAIQY
notes: homodimer; PLP on Lys195
B2: MvTA (Mycolicibacterium vanbaalenii PYR-1; A168E/H152N/H69R/K142P/K145R/L162I/R215G/S105P/S121M) (protein)
chain: MGIDTGTSNLVAVEPGAIREDTPAGSVIQYSDYEIDYSSPFAGGVAWIEGEYLPAEDAKISIFDTGFGRSDLTYTVAHVWHGNIFRLGDHLDRLLDGARKLRLDPGYTKDELADITKKCVMLSQLRESFVNLTITRGYGKRPGERDLSKLTNQVYIYAIPYIWAFPPEEQIFGTTAVVPRHVRRAGRNTVDPTIKNYQWGDLTAASFEAKDRGAGTAILMDADNCVAEGPGFNVCIVKDGKLASPSRNALPGITRKTVFEIAGAMGIEAALRDVTSHELYDADEIMAVTTAGGVTPINTLDGVPIGDGEPGPVTVAIRDRFWALMDEPGPLIEAIQY
notes: homodimer; PLP on Lys195
B3: MvTA (Mycolicibacterium vanbaalenii PYR-1; A168E/H152N/H69K/K142P/K145R/L162I/R215G/S105P/S121M) (protein)
chain: MGIDTGTSNLVAVEPGAIREDTPAGSVIQYSDYEIDYSSPFAGGVAWIEGEYLPAEDAKISIFDTGFGKSDLTYTVAHVWHGNIFRLGDHLDRLLDGARKLRLDPGYTKDELADITKKCVMLSQLRESFVNLTITRGYGKRPGERDLSKLTNQVYIYAIPYIWAFPPEEQIFGTTAVVPRHVRRAGRNTVDPTIKNYQWGDLTAASFEAKDRGAGTAILMDADNCVAEGPGFNVCIVKDGKLASPSRNALPGITRKTVFEIAGAMGIEAALRDVTSHELYDADEIMAVTTAGGVTPINTLDGVPIGDGEPGPVTVAIRDRFWALMDEPGPLIEAIQY
notes: homodimer; PLP on Lys195

Substrate in the series: C[C@@H](N)c1ccccc1
Nature of the series: HPLC of acetophenone, nonlinear regression. Particulars: 20 mM D-fructose, 0.1 mM PLP, pH 6.0, 30°C. Format: biochemical, Mycolicibacterium austroafricanum. From the text:
HPLC of acetophenone, nonlinear regression on MvTA
Turning to B1, the Km is recorded as 0.71 mM, the kcat is 0.0127 s⁻¹ and the specificity constant (kcat/Km) was 17.8 M⁻¹ s⁻¹.
B2: the Km was found to be 8.20 mM, the catalytic constant (kcat) was found to be 0.65 s⁻¹ and the kcat/Km turned out to be 79.2 M⁻¹ s⁻¹.
Regarding B3, the Km is 3.93 mM, the kcat was 0.189 s⁻¹ and the specificity constant (kcat/Km) was determined as 48 M⁻¹ s⁻¹.
